± gives the uncertainty stated by the source.
B1: Tripartite motif-containing protein 6, residues 93 to 134; numbered along this chain, Q9C030 (parent)
chain: KAVLCADHGEKLQLFCQEDGKVICWLCERSQEHRGHHTFLVE

Variants of: B1
Test: abundance fitness (aPCA) (normalised: wild type 0, dead -1); higher = more abundant; growth selection in yeast, the domain comes from the species named
Conditions: Homo sapiens
Variant KAVLCADHGEKLQLFAQEDGKVICWLCERSQEHRGHHTFLVE [C16A] has an abundance fitness of -0.284 ± 0.042.
With KAVLCADHGEKLQLFSQEDGKVICWLCERSQEHRGHHTFLVE [C16S] the abundance fitness was -0.286 ± 0.048.
With KAVLCADHGEKLQLFMQEDGKVICWLCERSQEHRGHHTFLVE [C16M] the abundance fitness was -0.584 ± 0.075.
In the case of KAVLCADHGEKLQLFRQEDGKVICWLCERSQEHRGHHTFLVE [C16R], the abundance fitness is reported as -0.354 ± 0.042.
Work on KAVLCADHGEKLQLFCQTDGKVICWLCERSQEHRGHHTFLVE [E18T] yielded an abundance fitness of -0.038 ± 0.12.
With KAVLCADHGEKLQLFCQLDGKVICWLCERSQEHRGHHTFLVE [E18L] the abundance fitness was -1 ± 0.26.
KAVLCADHGEKLQLFCQRDGKVICWLCERSQEHRGHHTFLVE [E18R] gave an abundance fitness of -0.302 ± 0.068.
KAVLCADHGEKLQLFCQWDGKVICWLCERSQEHRGHHTFLVE [E18W] showed an abundance fitness of -0.537 ± 0.13.
For KAVLCADHGEKLQLFCQHDGKVICWLCERSQEHRGHHTFLVE [E18H], the abundance fitness was -0.265 ± 0.29.
Variant KAVLCADHGEKLQLFCQIDGKVICWLCERSQEHRGHHTFLVE [E18I] has an abundance fitness of -0.364 ± 0.29.
KAVLCADHGEKLQLFCQKDGKVICWLCERSQEHRGHHTFLVE [E18K] showed an abundance fitness of -0.349 ± 0.12.
Work on KAVLCADHGEKLQLFCQADGKVICWLCERSQEHRGHHTFLVE [E18A] yielded an abundance fitness of -0.428 ± 0.083.
KAVLCADHGEKLQLFCQVDGKVICWLCERSQEHRGHHTFLVE [E18V] gave an abundance fitness of -0.261 ± 0.084.
Variant KAVLCADHGEKLQLFCQQDGKVICWLCERSQEHRGHHTFLVE [E18Q] has an abundance fitness of -0.146 ± 0.11.
With KAVLCADHGEKLQLFCQGDGKVICWLCERSQEHRGHHTFLVE [E18G] the abundance fitness was -0.434 ± 0.18.
In the case of KAVLCADHGEWLQLFCQEDGKVICWLCERSQEHRGHHTFLVE [K11W], the abundance fitness is reported as 0.339 ± 0.15.
In the case of KAVLCADHGENLQLFCQEDGKVICWLCERSQEHRGHHTFLVE [K11N], the abundance fitness is reported as -0.007 ± 0.08.
With KAVLCADHGEQLQLFCQEDGKVICWLCERSQEHRGHHTFLVE [K11Q] the abundance fitness was -0.3 ± 0.26.
For KAVLCADHGEVLQLFCQEDGKVICWLCERSQEHRGHHTFLVE [K11V], the abundance fitness was -0.055 ± 0.2.
KAVLCADHGESLQLFCQEDGKVICWLCERSQEHRGHHTFLVE [K11S] showed an abundance fitness of 0.155 ± 0.064.
In the case of KAVLCADHGERLQLFCQEDGKVICWLCERSQEHRGHHTFLVE [K11R], the abundance fitness is reported as -0.042 ± 0.062.
With KAVLCADHGETLQLFCQEDGKVICWLCERSQEHRGHHTFLVE [K11T] the abundance fitness was -0.101 ± 0.18.
In the case of KAVLCADHGEPLQLFCQEDGKVICWLCERSQEHRGHHTFLVE [K11P], the abundance fitness is reported as 0.315 ± 0.24.
With KAVLCADHGEKLQLFCQEAGKVICWLCERSQEHRGHHTFLVE [D19A] the abundance fitness was -0.807 ± 0.35.
With KAVLCADHGEKLQLFCQEIGKVICWLCERSQEHRGHHTFLVE [D19I] the abundance fitness was -0.888 ± 0.31.
KAVLCADHGEKLQLFCQERGKVICWLCERSQEHRGHHTFLVE [D19R] gave an abundance fitness of -0.584 ± 0.092.
In the case of KAVLCADHGEKLQLFCQEGGKVICWLCERSQEHRGHHTFLVE [D19G], the abundance fitness is reported as -0.757 ± 0.19.
Variant KAVLCADHGEKLQLFCQESGKVICWLCERSQEHRGHHTFLVE [D19S] has an abundance fitness of -0.391 ± 0.3.
KAVLCADHGEKLQLFCQECGKVICWLCERSQEHRGHHTFLVE [D19C] showed an abundance fitness of 0.627 ± 0.2.
KAVLCADHGEKLQLFCQEHGKVICWLCERSQEHRGHHTFLVE [D19H] showed an abundance fitness of -0.289 ± 0.12.
Work on KAVLCADHGEKLQLECQEDGKVICWLCERSQEHRGHHTFLVE [F15E] yielded an abundance fitness of -0.126 ± 0.046.
For KAVLCADHGEKLQLTCQEDGKVICWLCERSQEHRGHHTFLVE [F15T], the abundance fitness was -0.292 ± 0.056.
For KAVLCADHGEKLQLLCQEDGKVICWLCERSQEHRGHHTFLVE [F15L], the abundance fitness was -0.222 ± 0.051.
KAVLCADHGEKLQLGCQEDGKVICWLCERSQEHRGHHTFLVE [F15G] gave an abundance fitness of -0.087 ± 0.041.
Work on KAVLCADHGEKLQLCCQEDGKVICWLCERSQEHRGHHTFLVE [F15C] yielded an abundance fitness of 0.001 ± 0.078.
Variant KAVLCADHGEKLQLACQEDGKVICWLCERSQEHRGHHTFLVE [F15A] has an abundance fitness of -0.248 ± 0.046.
Work on KAVLCADHGEKLQLSCQEDGKVICWLCERSQEHRGHHTFLVE [F15S] yielded an abundance fitness of -0.212 ± 0.059.
With KAVLCADHGEKLQLQCQEDGKVICWLCERSQEHRGHHTFLVE [F15Q] the abundance fitness was 0.082 ± 0.061.
KAVLCADHGEKLQLMCQEDGKVICWLCERSQEHRGHHTFLVE [F15M] gave an abundance fitness of -0.029 ± 0.055.
Variant KAVLCADHGEKLQLPCQEDGKVICWLCERSQEHRGHHTFLVE [F15P] has an abundance fitness of -0.209 ± 0.062.
Variant KAVLCADHGEKLQLNCQEDGKVICWLCERSQEHRGHHTFLVE [F15N] has an abundance fitness of -0.418 ± 0.1.
In the case of KAVLCADHGEKLQLRCQEDGKVICWLCERSQEHRGHHTFLVE [F15R], the abundance fitness is reported as -0.112 ± 0.044.
KAVLCADHGEKLQLKCQEDGKVICWLCERSQEHRGHHTFLVE [F15K] gave an abundance fitness of 0.044 ± 0.067.
Work on KAVLCADHGEKLQLDCQEDGKVICWLCERSQEHRGHHTFLVE [F15D] yielded an abundance fitness of -0.329 ± 0.33.
Variant KAVLCADHGEKLQRFCQEDGKVICWLCERSQEHRGHHTFLVE [L14R] has an abundance fitness of 0.106 ± 0.055.
Work on KAVLCADHGEKLQHFCQEDGKVICWLCERSQEHRGHHTFLVE [L14H] yielded an abundance fitness of 0.122 ± 0.084.
KAVLCADHGEKLQWFCQEDGKVICWLCERSQEHRGHHTFLVE [L14W] gave an abundance fitness of 0.218 ± 0.054.
Variant KAVLCADHGEKLQIFCQEDGKVICWLCERSQEHRGHHTFLVE [L14I] has an abundance fitness of 0.001 ± 0.21.
Work on KAVLCADHGEKLQCFCQEDGKVICWLCERSQEHRGHHTFLVE [L14C] yielded an abundance fitness of -0.198 ± 0.072.
For KAVLCADHGEKLQFFCQEDGKVICWLCERSQEHRGHHTFLVE [L14F], the abundance fitness was -0.064 ± 0.093.
KAVLCADHGEKLQTFCQEDGKVICWLCERSQEHRGHHTFLVE [L14T] gave an abundance fitness of -0.087 ± 0.074.
KAVLCADHGEKLQVFCQEDGKVICWLCERSQEHRGHHTFLVE [L14V] showed an abundance fitness of -0.154 ± 0.056.
Work on KAVLCADHGEKLQGFCQEDGKVICWLCERSQEHRGHHTFLVE [L14G] yielded an abundance fitness of -0.082 ± 0.049.
In the case of KAVLCADHGEKLQNFCQEDGKVICWLCERSQEHRGHHTFLVE [L14N], the abundance fitness is reported as -0.153 ± 0.073.
KAVLCADHGEKLQMFCQEDGKVICWLCERSQEHRGHHTFLVE [L14M] showed an abundance fitness of 0.071 ± 0.12.
Variant KAVLCADHGEKLQKFCQEDGKVICWLCERSQEHRGHHTFLVE [L14K] has an abundance fitness of 0.065 ± 0.068.
Variant KAVLCADHGEKLQEFCQEDGKVICWLCERSQEHRGHHTFLVE [L14E] has an abundance fitness of -0.195 ± 0.081.
Variant KAVLCADHGEKLQDFCQEDGKVICWLCERSQEHRGHHTFLVE [L14D] has an abundance fitness of -0.087 ± 0.072.
KAVLCADHGEKLQPFCQEDGKVICWLCERSQEHRGHHTFLVE [L14P] gave an abundance fitness of -0.151 ± 0.1.
KAVLCADHGEKLQAFCQEDGKVICWLCERSQEHRGHHTFLVE [L14A] gave an abundance fitness of -0.186 ± 0.059.

Reference: the Human Domainome abundance scans (Beltran et al. 2025)
